Source: the supplement of paper PMC12042874
± gives the uncertainty stated by the source.

Assay: amyloid nucleation score (Sup35N fusion, yeast selection) (log enrichment); library NNK1; higher = more nucleation; inactive = no reads after selection
Method in brief: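 Growth for 7 days at 30°C on medium lacking adenine and uracil followed a 24-hour induction with 100 μM copper sulfate of psi-negative yeast expressing peptides of 20 random codons fused to Sup35N. Input and output plasmid inserts were sequenced with Illumina, and sequences with under 100 input reads were excluded. Nucleation score is the DiMSum log enrichment of output over input reads, centred on the mode score of non-aggregating sequences.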

Substance	amyloid nucleation score
LALKYPSLISPKRWT	0.688 ± 0.36
LALVFLLMFVHQSDDYKLRN	2.89 ± 0.17
LAMSSQSHYCKRRSVCRKSV	0.786 ± 0.81
LAPNNYAFHVNKSWGMNLVW	1.05 ± 0.2
LASEHNGASLICTLACTYLW	-0.642 ± 1
LASGNILAICWTRSEGSDTL	-0.313 ± 1.1
LASHHLACCYPNLSTSYLNP	-0.118 ± 0.84
LAYKNSLWGLLWKRF	-0.011 ± 0.49
LCAFLPVRTVKLCAFRIFDR	-1.06 ± 0.85
LCCAKLRNAIKVVNQCTCGY	4.4 ± 0.049
LCCKVLLALSAPGQFSVHNA	-0.621 ± 1.4
LCDFVLNIEREVNVYSFIKL	2.34 ± 0.13
LCDSPSKYNGPEYSMYVNLN	1.51 ± 0.7
LCEFSPLSCGCYGRDPHVPP	-0.73 ± 1.2
LCELQYAKWIMKLVYKTFTT	inactive
LCFVVVTSHDRGMHVIKVET	-0.857 ± 0.51
LCIIYVNYSGLLMTVNISSF	inactive
LCKVPLNT	1.36 ± 0.9
LCLSSWGLTLSLLIDCIYNR	-0.53 ± 0.48
LCMMMVQPLQGLSSAVTWSQ	-0.54 ± 0.35
LCRFSAEDHCYADCTVDHCC	-0.244 ± 0.66
LCSMKMIYQKC	0.177 ± 0.33
LCTLCIALPVMRVLSTVPVP	0.267 ± 0.59
LCVCGPRSVVNAREDVEGLS	0.478 ± 0.55
LCVRAIVRSCNSWKKYSFPR	0.031 ± 1

Substance	amyloid nucleation score
LCWVYHYKGFKRGVCRRCES	-0.86 ± 1.6
LCYFQGSWYLVRCAIALTYV	0.327 ± 0.48
LDASRNFVLLFS	0.784 ± 0.34
LDCHD	-0.246 ± 0.44
LDDAWRVWMHSL	0.981 ± 0.43
LDFNLICLYFLM	5.37 ± 0.072
LDLAGGKG	1.74 ± 0.14
LDNRYFGHIMSLELMFIRPS	1.19 ± 0.58
LDNWYISRFCCDVMTDANVD	-0.322 ± 0.8
LDTYRVNWMMRLATYNMMVM	0.312 ± 0.4
LDWHKLRDWVKLGW	-0.255 ± 0.73
LDWLMGGRTA	-0.598 ± 1.7
LENYDRGDSTRHIDCRLLFL	0.275 ± 0.52
LEQCYAAHSTYKMMPWAYKA	0.091 ± 0.33
LETINSSGRHF	2.74 ± 0.091
LEVVHRVLCTFCLFDSLMVY	1.78 ± 0.26
LEVYGQCDRVHCHSSR	-0.276 ± 0.5
LFFECVTLHLYLVKSS	-1.1 ± 2.4
LFFEVMHTFMLNMEFLLRFI	-1.12 ± 0.94
LFGLYFICSLKAISSYTERL	0.456 ± 0.23
LFHGCLVGLSMRKVKKKNPA	0.277 ± 0.28
LFIKFGTHVRYILA	-0.202 ± 0.42
LFIKVLLGFF	0.32 ± 0.45
LFLGGVIVHSQLCMTVGCCF	6.54 ± 0.079
LFLMKANMELVNLYFRSEVR	-0.556 ± 0.52

Substance	amyloid nucleation score
LFLSSCLNSGLGGTL	0.105 ± 0.29
LFMIMLL	-1.01 ± 0.43
LFRNANAMDYVVRCWCSRGI	0.928 ± 0.18
LFSWICEN	0.142 ± 0.28
LFVRFKTYVLP	0.663 ± 0.3
LFVRKVIYVDR	0.379 ± 0.33
LFYNICFYA	6.738 ± 0.048
LGALIYNSAFN	inactive
LGDELDTDAASISSNMEIWS	inactive
LGEMGRVSYLYVCLHWALLS	0.119 ± 0.44
LGFAFQNVTKALNLTFAYGS	0.81 ± 0.15
LGFLRLFKKYVFYACCDVYS	-0.175 ± 0.84
LGFPMRSVGQI	inactive
LGFRVNWIDHPRSNRSTAGL	0.604 ± 0.97
LGGGTFVRWLKSILSFLLW	0.325 ± 0.46
LGKIAQLYSEEVEQKSGSGV	-0.539 ± 0.42
LGMGLTKLLSNYMSGIIVPL	-0.047 ± 1.7
LGNIKFITYVERCTQEVVSY	-1.49 ± 1.8
LGQGRLYILYFMSMYLDMMG	0.748 ± 0.47
LGRHLMILTYQYEEDFPKYR	0.938 ± 0.16
LGTIVVSSVGKLGIIMTRAE	1.3 ± 0.15
LGWIDSYTYHWDTIHRKQFR	0.878 ± 0.33
LGWVYLHMWLGTIYYLFFVI	-1.14 ± 1
LGYEGWYTRVIYGKVALWME	-0.215 ± 0.59
LGYRPWFWTTAFSSLADLAR	-0.907 ± 1.3

Substance	amyloid nucleation score
LGYVIYFVFWRRHSFSYSAC	-0.407 ± 0.31
LGYVYSKSTSSTQSLFICSG	-0.287 ± 0.26
LHERRYSLLSLESLIHNKSC	-0.752 ± 0.61
LHLYIMS	inactive
LHQVMAWCMGEKWAETRSPW	-0.703 ± 2.1
LHRRSDNGESFWTEGSITFV	-0.086 ± 0.25
LHTCHSLLPLIEYDFISYGV	-0.208 ± 0.7
LHWFQLMANFI	-0.069 ± 0.28
LIEGRGIRGLVCCFSISFA	8.375 ± 0.048
LIFVNVSGL	6.406 ± 0.054
LIHVCQYCVRPVNGGSVNLR	0.264 ± 0.44
LIHVRCSLVQCANSELQGAG	2.65 ± 0.28
LIIVEIMLDDVSVVSFRVIH	0.195 ± 0.6
LIMVFVDSLRNRLELCFFQC	inactive
LINSFLVLWKPFIFAEGRTR	7.903 ± 0.066
LIQIDLF	-0.264 ± 0.56
LIRNINHWASYRFFCNCSSW	6.443 ± 0.06
LIRREHSRL	inactive
LIVIPKGG	1.58 ± 0.51
LIVNLDMTSVLHVSGELR	5.22 ± 0.078
LIVRNRHCLGAPFENFFSAR	0.671 ± 0.37
LIYESNREHYYMRSRSAVTR	-0.825 ± 0.99
LIYYNLIGHRVSWGEVGYFV	0.014 ± 0.35
LKFKARLRRTLPVQQNRAIG	inactive
LKGKTLVMSFFRSAKITVAH	inactive

Substance	amyloid nucleation score
LKGVIYAVANWGWIISGHEV	0.837 ± 0.23
LKISWR	0.724 ± 0.36
LKLCKVRMQTLLNDVGTSCP	0.025 ± 0.4
LKLYLYTLECTFDELDYGD	0.161 ± 0.41
LKQSYKKPY	inactive
LKTYFGVVSRTLGLCLREEI	0.489 ± 0.43
LKYLR	1.14 ± 0.15
LLASAIHLNRTADAMKEYYP	-0.036 ± 0.39
LLDGYSLDNIGLEVGNASSN	0.53 ± 0.41
LLFKNRISPITTI	0.174 ± 0.47
LLFLSMMVSASCC	1.09 ± 0.39
LLFYLRSLKMYVLYSGHTMS	1.25 ± 0.45
LLFYYLHIFMFSDDRVM	0.582 ± 0.56
LLGRYNLLYIGMFRATRGGC	-0.094 ± 1.5
LLIEWRLDSGWCTTGSENRD	-0.347 ± 0.4
LLIGYWLNLECLRYEMCHVL	-0.396 ± 0.66
LLLGDC	-1.43 ± 2.4
LLLGW	-0.102 ± 0.32
LLLIFNEELW	-0.28 ± 0.43
LLNAFWSFAY	1.6 ± 0.32
LLNFCIWAKCWYRLVCNC	0.209 ± 0.93
LLPRGESHVKLKDRGSRMPW	0.921 ± 0.5
LLRGSCFMCSLLDYALVKEG	3.84 ± 0.1
LLRLFALLTLNNLV	-0.296 ± 0.31
LLRLVSFCCFSNRN	6.05 ± 0.053

Substance	amyloid nucleation score
LLRYITARETSLTQSQP	0.298 ± 0.53
LLSFGTFTGPKRVYLSLSMV	0.059 ± 0.86
LLVGMPPNIDM	-0.078 ± 0.41
LLVSLSNCFLIWSSAGSMGG	1.81 ± 0.23
LLVWNVNGSAMSCNDRCLQS	7.141 ± 0.049
LLYRMKVFADVGGDVLKSEG	inactive
LLYVLSTLIMYTSTMYIYQV	0.662 ± 0.51
LLYVRVHCLTAGFADSEASI	-0.168 ± 0.4
LMAHSGSAP	3.3 ± 0.19
LMAPLCICKNFRPELWFNRI	-0.115 ± 0.58
LMCWFAGEDPVFVYTVFIVT	-1.49 ± 1.4
LMGGNDNWGTTNPEDGILIW	-0.347 ± 0.41
LMLISHEDFLLVFAWFN	-0.062 ± 0.54
LMLVRLVCLHLDDETHIRQR	inactive
LMMQRERPFRLYL	-1.34 ± 1.6
LMNFSNWDELR	-1.26 ± 2.4
LMSLIMI	0.032 ± 0.44
LMTLDYSTYQHRRATDVWDG	-0.65 ± 1.3
LMTNKKNVMMRRIHTGVASN	0.368 ± 0.97
LMWGIAYCYSVDLC	5.386 ± 0.051
LMYQSFRLTGSYVVIFLYES	-0.543 ± 1.1
LMYSNRYF	4.1 ± 0.079
LMYSVS	0.434 ± 0.38
LNAESLMSRFVCGMFVVTKG	0.112 ± 1.2
LNCCRMGGVLS	0.11 ± 0.42

Substance	amyloid nucleation score
LNCGHYQIASGF	0.393 ± 0.72
LNCPFYIFFLLHTVSA	6.608 ± 0.065
LNGVNLRGFTRWLVGCGDVD	0.141 ± 0.65
LNKTSFPWLKSYKVWRNVMD	1.71 ± 0.58
LNLWPIDANVGWLWKRWRWR	-0.538 ± 2.1
LNNYNGVTVGWGNSWYLYLG	-0.116 ± 0.45
LNSRHVNSYF	0.869 ± 0.48
LNTVSEITVVAKLNF	2.3 ± 0.12
LNWSNKWSFTNMRRFCAMF	0.01 ± 0.26
LNYFLLLMFQCDGRILFRFY	0.652 ± 0.84
LPALKCELGAAMLSAQLMAR	-0.18 ± 0.24
LPCYSSLQSLGQRMQVKG	0.025 ± 0.31
LPFVDLKFL	0.374 ± 0.28
LPNRCASIVRQIVQVWCVS	2.41 ± 0.12
LPPTLVLMIHNRRVCRCSLA	1.05 ± 0.69
LPSIYSFSSCNVVEDEGQM	-0.685 ± 1.2
LQFLSGYNC	0.293 ± 0.49
LQQITGSCSFSGWGLK	0.091 ± 0.46
LQRGQVLALADSRFCVRCSR	1.02 ± 0.57
LQVVALW	0.123 ± 0.56
LRAVTWLRYAYQGLFDVDV	-0.07 ± 0.56
